Measured values published in US6699677B1, “Tethered ligands and methods of use” (ChemoCentryx, Inc., priority 1999, dated 2004).

T1: CCR10 (Homo sapiens, UniProt Q9NPB9)
T1 construct: Full length CCR10 expression constructs were made in pIRESpuro expression vector; expressed in transfected cells; HEK293-CCR10)
T1 sequence (Q9NPB9 1-350): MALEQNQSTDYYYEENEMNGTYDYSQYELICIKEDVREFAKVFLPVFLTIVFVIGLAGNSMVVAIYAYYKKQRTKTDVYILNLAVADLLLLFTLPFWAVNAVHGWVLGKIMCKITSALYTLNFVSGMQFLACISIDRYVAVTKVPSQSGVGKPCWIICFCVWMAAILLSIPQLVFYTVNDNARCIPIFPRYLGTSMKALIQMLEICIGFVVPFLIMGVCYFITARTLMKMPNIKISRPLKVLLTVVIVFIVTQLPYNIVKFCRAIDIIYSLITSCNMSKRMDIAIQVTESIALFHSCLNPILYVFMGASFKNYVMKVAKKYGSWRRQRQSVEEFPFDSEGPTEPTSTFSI

T2: CCR7 (Homo sapiens, UniProt P32248)
T2 construct: host or cells: mouse myeloma NSO
T2 sequence (P32248 25-378): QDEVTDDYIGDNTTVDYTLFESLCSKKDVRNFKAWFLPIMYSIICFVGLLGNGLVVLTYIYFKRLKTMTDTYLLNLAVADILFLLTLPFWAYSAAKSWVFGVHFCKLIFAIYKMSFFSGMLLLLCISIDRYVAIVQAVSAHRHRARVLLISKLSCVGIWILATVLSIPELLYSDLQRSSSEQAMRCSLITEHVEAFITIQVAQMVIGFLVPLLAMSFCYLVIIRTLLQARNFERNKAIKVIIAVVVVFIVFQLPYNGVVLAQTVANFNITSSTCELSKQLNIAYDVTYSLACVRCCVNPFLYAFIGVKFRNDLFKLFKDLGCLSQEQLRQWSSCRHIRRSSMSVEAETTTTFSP


Tests used:
[1] = molecular target: T3, CCR8 (Homo sapiens, UniProt P51685); assay: Binding of CCR8-NSO cells to immobilized stalkokines
T3 construct: host or cells: mouse myeloma NSO
Procedure: (§1) In one set of experiments, five 8 well chamber slides (Lab-Tek II, Nalge Nunc International, Rochester, N.Y.), 250 ul of 10 ug/ml anti-his antibody (R&D Systems, Minneapolis, Minn.) in PBS was added to each well and incubated at room temperature overnight (typically 16 hours). Following, the liquid in each well was aspirated and washed once for approximately 5 minutes with 500 ul of PBS. The wells were then “blocked” (blocked for any additional protein binding sites) with the addition of 250 ul of blocking solution (2% fetal bovine serum, 0.5% BSA in PBS) and incubation for 1 hour at room temp (e.g., 20° C.). The liquid in each well was aspirated and 250 ul of supernatant containing the chemokine-stalk-immobilization domain fusion proteins (SDF1a-FRAC, finetaxin-FRAC, CCL27-FRAC, 1309-FRAC, MIP3a-FRAC, ELC-FRAC, SLC-FRAC, MDC-FRAC, TARC-FRAC, or BRAK-FRAC) or the control supernatant was added to two wells. Each slide contained two wells with control supernatant (from mock-transfected cells) and two wells with the positive control SDF1a (which binds the ubiquitous chemokine receptor CXCR4). The four other wells were for experimental samples. The supernatants were incubated for one hour at room temperature (typically 20° C.), then incubated for an additional hour at 37° C. […] The slide was then ready for addition of cells for assay. […]

[2] = molecular target: T1, CCR10; assay: Spectrum of ligands that bind to CCR10; assay type: binding
Description: (§2) Furthermore ELC-SK mediated adhesion was abolished in the presence of soluble native ELC as a competitor (FIG. 3A, top row). […] Moreover, radiolabeled ELC was used in a traditional homologous competition assay in the presence of increasing concentrations of unlabeled ELC. […] Taken together, the stalkokine-based adhesion and radiolabeled ligand binding/homologous competition assays indicate that CCR10 is a new chemokine receptor that bound a novel compliment of chemokines.

[3] = molecular target: T2, CCR7; assay: Binding of CCR7-NSO cells to immobilized stalkokines
Procedure: as §1

[4] = molecular target: T1, CCR10; assay: Homologous competition binding of radiolabeled chemokine on HEK293-CCR10 cells
Description: Human, viral and murine recombinant chemokines were obtained from R&D Systems (Minneapolis, Minn.; http://cytokine.rndsystems.com/cyt_cat/cyt_cat.html). ^125I-labeled ELC and TECK were obtained from Amersham. Full length CCR10 expression constructs were made in pIRESpuro expression vector (Clontech, Palo Alto, Calif.) with a FLAG epitope tag and prolactin signal sequence, and used to generated stable transfectants in HEK293 cells. Transient and stable transfections for CCR10 and stalkokines were done using Superfect reagent (Qiagen, Valencia, Calif.) following manufacturer's protocol. Stably-transfected cells were generated by selection in 2 ug/mL puromycin for 7 days, and expression was confirmed by FACS analysis of the FLAG epitope using anti-FLAG M1 (Sigma, St. Louis, Mo.) and 2′ anti-mouse PE conjugate (Coulter Immunotech, Miami, Fla.).
as §2

T3 sequence (P51685 whole entry): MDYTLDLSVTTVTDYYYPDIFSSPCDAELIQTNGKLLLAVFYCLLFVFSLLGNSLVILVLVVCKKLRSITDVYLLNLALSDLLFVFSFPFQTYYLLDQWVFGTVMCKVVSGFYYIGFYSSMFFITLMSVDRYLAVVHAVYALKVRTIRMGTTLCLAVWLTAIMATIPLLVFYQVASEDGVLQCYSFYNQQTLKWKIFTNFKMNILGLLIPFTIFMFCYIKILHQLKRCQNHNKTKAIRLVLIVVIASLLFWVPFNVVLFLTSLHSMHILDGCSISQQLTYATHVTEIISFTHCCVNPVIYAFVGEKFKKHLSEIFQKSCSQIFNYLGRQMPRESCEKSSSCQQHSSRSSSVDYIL

Row | Binding to Stalkokine form [1] | Affinity of binding to CCR10 [2] | Binding to Stalkokine form [3] | Binding of radiolabeled chemokine in homologous competition with cold chemokine [4] | Molecule
1 | yes, yes |  |  |  | I309: stalkokine form of chemokine I309 (protein, left off: small tags and cut ends) KSMQVPFSRCCFSFAEQEIPLRAILCYRNTSSICSNEGLIFKLKRGKEACALDTVGWVQRHRKMLRHCPSKRKEFGGTFEKQIGEVKPRTTPAAGGMDESVVLEPEATGESSSLEPTPSSQEAQRALGTSPELPTGVTGSSGTRLPPTPKAQDGGPVGTELFRVPPVSTAATWQSSAPHQPGPSLWAEAKTSEAPSTQDPSTQASTASSPAPEENAPSEGQRVWGQGQSPRPENSLEREEMGPVPAHTDAFQDWGPGSMAHVSVVPVSSEGTPSREPVASGSWTPKAEEPIHATMDPQRLGVLITPVPDAQA
2 |  | high affinity | no |  | SLC: secondary lymphoid-tissue chemokine, soluble recombinant (protein, UniProt O00585 24-134, looked up) C-C motif chemokine 21: SDGGAQDCCLKYSQRKIPAKVVRSYRKQEPSLGCSIPAILFLPRKRSQAELCADPKELWVQQLMQHLDKTPSPQKPAQGCRKDRGASKTGKKGKGSKGCKRTERSQTPKGP
3 |  | high affinity |  | Nearly identical results | TECK: thymus expressed chemokine, soluble recombinant (protein) QGVFEDCCLAYHYPIGWAVLRRAWTYRIQEVSGSCNLPAAIFYLPKRHRKVCGNPKSREVQRAMKLLDARNKVFAKLHHNTQTFQAGPHAVKKLSSGNSKLSSSKFSNPISSSKRNVSLLISANSGL
